The record followed here is US20150274845A1 (Hoffmann-La Roche, published 2015).

For assay [1], the target named is human Melanoma-associated Chondroitin Sulfate Proteoglycan (MCSP) (human, UniProt Q6UVK1 30-2322). Nature of the assay: cell-based or functional assay.
For assay [2], the target named is human CD3 T-Cell Co-Receptor (CD3) (human, UniProt P07766 23-207). The assay is described as follows: cell-based or functional assay.
Sequence of human CD3 T-Cell Co-Receptor (CD3) (P07766 23-207): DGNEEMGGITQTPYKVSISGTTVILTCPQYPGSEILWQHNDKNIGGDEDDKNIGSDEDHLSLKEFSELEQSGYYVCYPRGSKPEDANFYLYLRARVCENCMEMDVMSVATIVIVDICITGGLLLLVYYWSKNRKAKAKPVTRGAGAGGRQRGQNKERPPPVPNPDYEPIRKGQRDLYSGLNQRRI

Sequence of human Melanoma-associated Chondroitin Sulfate Proteoglycan (MCSP) (Q6UVK1 30-2322): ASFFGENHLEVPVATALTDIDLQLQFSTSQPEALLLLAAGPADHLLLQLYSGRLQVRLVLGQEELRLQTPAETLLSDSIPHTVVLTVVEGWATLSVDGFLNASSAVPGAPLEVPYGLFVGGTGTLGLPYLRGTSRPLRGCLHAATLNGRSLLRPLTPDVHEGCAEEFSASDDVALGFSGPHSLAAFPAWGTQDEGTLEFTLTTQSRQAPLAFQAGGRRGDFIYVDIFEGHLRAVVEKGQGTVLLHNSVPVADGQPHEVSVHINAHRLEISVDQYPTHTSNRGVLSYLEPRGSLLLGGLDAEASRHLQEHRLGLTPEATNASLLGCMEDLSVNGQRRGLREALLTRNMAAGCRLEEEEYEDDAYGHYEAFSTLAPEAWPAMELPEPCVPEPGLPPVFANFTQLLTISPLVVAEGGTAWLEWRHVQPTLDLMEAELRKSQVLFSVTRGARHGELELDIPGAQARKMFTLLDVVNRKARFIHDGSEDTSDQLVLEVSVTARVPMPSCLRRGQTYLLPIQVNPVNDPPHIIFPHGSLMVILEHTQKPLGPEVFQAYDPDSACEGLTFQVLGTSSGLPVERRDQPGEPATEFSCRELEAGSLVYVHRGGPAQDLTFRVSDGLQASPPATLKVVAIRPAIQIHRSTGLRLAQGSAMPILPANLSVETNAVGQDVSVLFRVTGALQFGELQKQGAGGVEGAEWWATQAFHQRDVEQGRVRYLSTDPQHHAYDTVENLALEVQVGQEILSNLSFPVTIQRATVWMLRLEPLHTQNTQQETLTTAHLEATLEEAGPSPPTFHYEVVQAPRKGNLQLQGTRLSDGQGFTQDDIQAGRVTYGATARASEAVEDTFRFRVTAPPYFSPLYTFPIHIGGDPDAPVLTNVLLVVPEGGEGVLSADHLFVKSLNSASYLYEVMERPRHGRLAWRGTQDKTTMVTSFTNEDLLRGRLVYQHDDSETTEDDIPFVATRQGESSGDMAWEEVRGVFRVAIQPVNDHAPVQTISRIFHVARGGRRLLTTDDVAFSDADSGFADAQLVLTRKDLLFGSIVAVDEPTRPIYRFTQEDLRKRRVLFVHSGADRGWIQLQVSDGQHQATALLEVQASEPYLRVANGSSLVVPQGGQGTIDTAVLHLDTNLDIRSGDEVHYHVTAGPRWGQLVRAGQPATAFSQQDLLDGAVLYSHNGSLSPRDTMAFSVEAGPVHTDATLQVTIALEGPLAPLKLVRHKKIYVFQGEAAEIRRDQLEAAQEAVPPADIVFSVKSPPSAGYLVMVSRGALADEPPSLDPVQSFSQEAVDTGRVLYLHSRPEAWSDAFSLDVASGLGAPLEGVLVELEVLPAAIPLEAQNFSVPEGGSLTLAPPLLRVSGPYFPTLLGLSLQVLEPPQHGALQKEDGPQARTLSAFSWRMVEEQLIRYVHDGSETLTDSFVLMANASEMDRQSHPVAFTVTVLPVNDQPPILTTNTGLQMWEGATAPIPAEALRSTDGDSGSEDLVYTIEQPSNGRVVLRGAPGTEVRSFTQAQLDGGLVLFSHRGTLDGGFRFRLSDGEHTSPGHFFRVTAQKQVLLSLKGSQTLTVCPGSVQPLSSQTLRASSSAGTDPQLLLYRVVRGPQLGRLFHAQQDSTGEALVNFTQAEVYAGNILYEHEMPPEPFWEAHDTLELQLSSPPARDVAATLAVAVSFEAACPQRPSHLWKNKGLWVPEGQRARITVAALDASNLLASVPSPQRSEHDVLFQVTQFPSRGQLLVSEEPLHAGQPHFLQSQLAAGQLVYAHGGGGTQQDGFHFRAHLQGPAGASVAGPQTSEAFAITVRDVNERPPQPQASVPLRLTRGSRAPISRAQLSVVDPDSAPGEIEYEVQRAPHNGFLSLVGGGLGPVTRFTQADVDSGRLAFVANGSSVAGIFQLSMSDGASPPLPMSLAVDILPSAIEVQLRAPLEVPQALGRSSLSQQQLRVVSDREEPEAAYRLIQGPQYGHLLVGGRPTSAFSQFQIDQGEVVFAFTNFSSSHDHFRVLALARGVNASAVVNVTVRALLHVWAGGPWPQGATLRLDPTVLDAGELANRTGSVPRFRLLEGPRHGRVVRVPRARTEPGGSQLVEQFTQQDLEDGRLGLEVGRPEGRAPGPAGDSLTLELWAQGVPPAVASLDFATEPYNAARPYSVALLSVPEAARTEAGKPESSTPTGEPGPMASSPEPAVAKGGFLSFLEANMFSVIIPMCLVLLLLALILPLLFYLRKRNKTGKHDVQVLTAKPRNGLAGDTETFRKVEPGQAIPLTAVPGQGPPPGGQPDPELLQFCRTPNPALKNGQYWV

B1: hu Fab (MCSP)-Crossfab (CD3) (bispecific antibody)
chain 1: EVQLQESGPGLVKPSQSLSLTCSVTGYSITSGYYWNWIRQFPGNKLEWMGYITYDGSNNYNPSLKNRISITRDTSKNQFFLKLNSVTTEDTATYYCADFDYWGQGTTLTVSSASTKGPSVFPLAPSSKSTSGGTAALGCLVKDYFPEPVTVSWNSGALTSGVHTFPAVLQSSGLYSLSSVVTVPSSSLGTQTYICNVNHKPSNTKVDKKVEPKSCDGGGGSGGGGSDIQMTQSPSSLSASVGDRVTITCRASQDIRNYLNWYQQKPGKAPKLLIYYTSRLESGVPSRFSGSGSGTDYTLTISSLQPEDFATYYCQQGNTLPWTFGQGTKVEIKSSASTKGPSVFPLAPSSKSTSGGTAALGCLVKDYFPEPVTVSWNSGALTSGVHTFPAVLQSSGLYSLSSVVTVPSSSLGTQTYICNVNHKPSNTKVDKKVEPKSC
light: DIVLTQSPSSLSASLGDRVTISCSASQGIRNYLNWYQQRPDGTVKLLIYYTSSLHSGVPSRFSGSGSGTDYSLTISNLEPEDIATYYCQQYSKLPWTFGGGTKLEIKRTVAAPSVFIFPPSDEQLKSGTASVVCLLNNFYPREAKVQWKVDNALQSGNSQESVTEQDSKDSTYSLSSTLTLSKADYEKHKVYACEVTHQGLSSPVTKSFNRGEC
chain 2: EVQLVESGGGLVQPGGSLRLSCAASGYSFTGYTMNWVRQAPGKGLEWVALINPYKGVSTYNQKFKDRFTISVDKSKNTAYLQMNSLRAEDTAVYYCARSGYYGDSDWYFDVWGQGTLVTVSSASVAAPSVFIFPPSDEQLKSGTASVVCLLNNFYPREAKVQWKVDNALQSGNSQESVTEQDSKDSTYSLSSTLTLSKADYEKHKVYACEVTHQGLSSPVTKSFNRGEC
Regarding B1, the “EC50 of killing (LDH release) of MV-3 tumor cells, human PBMCs, E:T 10:1, 24 hours” value in assay [1] and in assay [2] was 25.4 pM throughout.

B2: (scFv)2 (antiMCSP/anti huCD3e) (bispecific antibody)
scFv: DIVLTQSPSSLSASLGDRVTISCSASQGIRNYLNWYQQRPDGTVKLLIYYTSSLHSGVPSRFSGSGSGTDYSLTISNLEPEDIATYYCQQYSKLPWTFGGGTKLEIKGGGGSGGGGSGGGGSEVQLQESGPGLVKPSQSLSLTCSVTGYSITSGYYWNWIRQFPGNKLEWMGYITYDGSNNYNPSLKNRISITRDTSKNQFFLKLNSVTTEDTATYYCADFDYWGQGTTLTVSSGGGGSEVQLVESGGGLVQPGGSLRLSCAASGYSFTGYTMNWVRQAPGKGLEWVALINPYKGVSTYNQKFKDRFTISVDKSKNTAYLQMNSLRAEDTAVYYCARSGYYGDSDWYFDVWGQGTLVTVSSVEGGSGGSGGSGGSGGVDDIQMTQSPSSLSASVGDRVTITCRASQDIRNYLNWYQQKPGKAPKLLIYYTSRLESGVPSRFSGSGSGTDYTLTISSLQPEDFATYYCQQGNTLPWTFGQGTKVEIKHHHHHH
As to B2, the “EC50 of killing (LDH release) of MV-3 tumor cells, human PBMCs, E:T 10:1, 24 hours” value in assay [1] and in assay [2] was 57 pM each time.
